Blank lines part the entries; values can stand above or below the binder they belong to.
How the values were obtained:
[1] = target: T1, human LAIR1 extracellular domain (ECD) protein with 6 HIS tag at the C-terminus (human, UniProt Q6GTX8 22-165); assay: ELISA, LAIR1 ECD coated, mAb titrated, anti-rabbit HRP
T1 construct: Produced recombinantly in HEK293 cells; the whole entry is named here; also called LAIR1 ECD; LAIR1-ECD
T1 chain: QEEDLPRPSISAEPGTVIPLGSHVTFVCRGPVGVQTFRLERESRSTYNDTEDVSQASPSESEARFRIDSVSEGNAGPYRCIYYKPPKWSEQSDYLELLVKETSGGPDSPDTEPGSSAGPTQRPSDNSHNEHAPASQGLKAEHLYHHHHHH
Procedure: (§1) The inventors then used a concentration titration (0-10 μg/ml) by ELISA to determine the LAIR1 monoclonal antibody (mAbs) binding to human LAIR1 ECD. […] For FIGS. 2-39, X axis indicates the antibody concentrations and Y-axis is binding signals, measured as OD (450 nm). To perform the ELISA assay, LAIR1 ECD recombinant protein was coated on high absorption 96-well plates. Serial diluted (3-fold) LAIR1 mAb was added to the coated/blocked plates and detected using goat anti-rabbit F(ab′)2 conjugated HRP as secondary antibody. All assays were repeated 3 times and the titration curves were fitted using 4-parameter fitting curve using the GraphPad software for EC₅₀ estimation.
(§2) Serial dilutions of the LAIR1 monoclonal antibodies (IgGs or scFvs fragments), starting from […] and 3-fold titration down for 12 steps, were added to the 96-well plate for binding by incubating 45 minutes at 37° C. with a cover on the assay plate. Then the plates were washed with PBS containing Tween 20 (0.05% concentration) for 3 times and PBS one time. […] Detection was conducted by adding HRP substrate, TMB (ThermoFisher) for 10 minutes, and stopped by adding 50 μl/well of 2N H2504. The plates were read for absorbance at 450 nm using a plate reader (SpectraMax M4, Molecular Devices). Data were collected and graphed using a 4-parameter fitting curve with GrapPad Prism 7 software for EC₅₀ calculation.

[2] = target: T1, human LAIR1 extracellular domain (ECD) …; assay: ELISA, LAIR1 ECD coated
Procedure: as §1, §2

[3] = target: T2, recombinant LAIR1 (human, UniProt Q6GTX8 22-165, limits assumed); assay: BLI (Octet), mAb on protein A sensor, recombinant LAIR1 0.1-200 nM, 1:1 fit
T2 construct: also called LAIR1 (Octet analyte)
T2 chain: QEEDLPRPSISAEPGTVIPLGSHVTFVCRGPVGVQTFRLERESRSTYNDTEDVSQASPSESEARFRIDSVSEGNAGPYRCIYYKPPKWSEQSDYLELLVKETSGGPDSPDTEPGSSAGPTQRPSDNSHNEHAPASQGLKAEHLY
Procedure: To perform the assay, antibody (30 μg/mL) was loaded to the proteins A sensor for 4 min, followed by a short buffering to establish baseline in kinetics buffer. The loaded sensors were then exposed to a series of recombinant LAIR1 concentrations (0.1-200 nM) for kinetic binding detection. Background subtraction was used to correct the sensor drifting. All experiments were performed with shaking at 1,000 rpm. Background wavelength shifts were measured from reference sensors that were loaded only with antibody. ForteBio's data analysis software was used to fit the data to a 1:1 binding model to extract an association rate and dissociation rate. The KD was calculated using the ratio […] using ForteBio's data analysis software 7.0.

[4] = target: T3, LAIR1 on LAIR1 reporter cells (human, UniProt Q6GTX8 22-165, limits assumed); assay: cell-based or functional assay
T3 chain: T2 chain

[5] = target: T3, LAIR1 on LAIR1 reporter cells; assay: cell-based or functional assay
[6] = target: T3, LAIR1 on LAIR1 reporter cells; assay: cell-based or functional assay

- EC50 [1]: 0.37 nM
- EC50 (read off the curve) [2]: ~0.05 µg/mL
- Kd [3]: 0.0337 nM
- koff [3]: 8.02e-06 s⁻¹
- kon [3]: 238000 M⁻¹ s⁻¹
B1: LA-258-2 (antibody, V domains shown)
VH: QSVKESGGDLVKPEGSLTLTCKASGFSFSNSYYMCWVRQAPGKGLEWIACIYTGSTSGTYYASWVNGRFTISKTPSTTVTLQMTSLTVADTATYFCSRKLTNFNGAYLDLWGPGTLVTISS
VL: ELVMTQTPSSVEAAVGGTVTIKCQASQSIYSYLAWYQQKPGQPPKVLIYKASTLASGVPSRFKGSGSGTDFTLTISDLECADAATYYCQANNGGSDNNFGGGTEVEIK
notes: Rabbit monoclonal IgG

- GFP+% of LAIR1 reporter cells, collagen I coated, soluble Ab and K562 cells [4]: 19%
- EC50 [1]: 0.03 nM
- GFP+ of LAIR1 reporter cells, Abs coated [5]: > 40%
- GFP+ of LAIR1 reporter cells, Collagen I coated [5]: < 5%
- GFP+% of LAIR1 reporter cells, collagen I coated, soluble Ab [6]: 5.76%
- EC50 (read off the curve) [2]: ~0.01 µg/mL
B2: LA-235 (antibody, V domains shown)
VH: SSSVEESEGRLVTPGTPLTLTCTVSGFSLSSYTMGWVRQAPGEGLEWIGTTSNDGSTYYASWAKGRFTISKTSSTTVDLMMTSLTTEDTATYFCVRGTNIRSLWGPGTLVTISS
VL: ELVMTQTPASVEAAVGGTVTIKCQASQSIGSNLAWYQQKPGQPPKLLIYLASALASGVSSRFKGSGSGSDFTLTISDLECADAATYYCQCTYGSSNNNNYGDPFGGGTEVEIK
notes: Rabbit monoclonal IgG; Called an antagonist antibody

- GFP+% of LAIR1 reporter cells, collagen I coated, soluble Ab and K562 cells [4]: 2.11%
- EC50 [1]: 0.06 nM
- GFP+ of LAIR1 reporter cells, Collagen I coated [5]: < 5%
- GFP+ of LAIR1 reporter cells, Collagen I coated + K562 [5]: < 5%
- GFP+% of LAIR1 reporter cells, collagen I coated, soluble Ab [6]: 0.924%
- EC50 (read off the curve) [2]: ~0.008 µg/mL
B3: LA-219 (antibody, V domains shown)
VH: EQSVESGGGLITPGGTLTLTCTASGFTVTRYYMNWVRQAPGKGLEWIGYIYASSKTYYANWAKGRFTISKTSTTVDLKMTSLTAEDTGTYFCARGGVGNSGLNLDLWGPGTLVTISS
VL: ELDMTQTPASVSEPVGGTVTIKCQASQSIGSWLAWYQQKPGQPPKLLIYQASRLASGVSSRFGGSGSGTEFTLTISDLECADAATYYCQQAEYSGDVENTFGGGTEVVVK
notes: Rabbit monoclonal IgG; Called a potential antagonist antibody

- GFP+% of LAIR1 reporter cells, collagen I coated, soluble Ab and K562 cells [4]: 24.6%
- EC50 [1]: 0.12 nM
- GFP+ of LAIR1 reporter cells, Abs coated [5]: > 40%
- GFP+ of LAIR1 reporter cells, Collagen I coated [5]: > 40%
- GFP+ of LAIR1 reporter cells, Collagen I coated + K562 [5]: > 40%
- GFP+% of LAIR1 reporter cells, collagen I coated, soluble Ab [6]: 50.4%
- EC50 (read off the curve) [2]: ~0.02 µg/mL
B4: LA-94 (antibody, V domains shown)
VH: EQSLEESEGRLVTPGTPLTLTCTASGFSLSGYHMSWVRQAPGKGLEYIGYISERGTSYYANWAKGRFTVSKSSSSTVVLSIISPTAEDTATYFCARYGGGDSAFILWGPGTLVTISS
VL: ELVMTQTPASVSGPVGGTVTIKCQASHNIDNSLAWYQQKPGQPPKLLIYKASTLASGVSSRFKGSGSGTEYTLTISDLECADAATYFCQGTIGLNSGCAFGGGTEVEIK
notes: Rabbit monoclonal IgG; Called an agonist antibody; also called mAb LA-94; agonist Ab LA-94

- GFP+% of LAIR1 reporter cells, collagen I coated, soluble Ab and K562 cells [4]: 18.7%
- EC50 [1]: 0.04 nM
- GFP+ of LAIR1 reporter cells, Abs coated [5]: > 40%
- GFP+ of LAIR1 reporter cells, Collagen I coated [5]: > 40%
- GFP+ of LAIR1 reporter cells, Collagen I coated + K562 [5]: > 40%
- GFP+% of LAIR1 reporter cells, collagen I coated, soluble Ab [6]: 63.2%
- EC50 (read off the curve) [2]: ~0.02 µg/mL
B5: LA-192 (antibody, V domains shown)
VH: EQSLEESGGRLVTPGTPLTLTCTASGFSLSSYYMTWVRQAPGKGLEWIGYMHTGGGVVYASWATGRFTISRTSTTVDLKITSPTTEDTATYFCARSHAGYSTINRLDLWGVGTLVTISS
VL: ELDLTQTPSSVSAAVGGTVTISCQSSPSVYTNNLSWFQQKPGQPPKLLIYDASKLESGVPSRFRGSGSGTQFTLTISDVQCDDAATYYCAGAYLSDSDTTFGGGTELEIK
notes: Rabbit monoclonal IgG; Called an agonist antibody

- EC50 [1]: 0.22 nM
- EC50 (read off the curve) [2]: ~0.03 µg/mL
- Kd [3]: 0.196 nM
- koff [3]: 4.23e-05 s⁻¹
- kon [3]: 216000 M⁻¹ s⁻¹
B6: LA-259-2 (antibody, V domains shown)
VH: QSVKESGGRLVTPGTPLTLTCTASGFSLYKYNIQWVRQAPGKGLEYIGASTYAGYTYYASWAKGRVTISRTSTTVDLKMTSPTTEDTATYFCARHIDGDYSGYALWGPGTLVTISS
VL: ELVMTQTPASVSAAVGGTVTIKCQASQSIGTWFAWYQQKPGQSPKLLIYGPSKLASGVPPRFKGSGSGTEFTLTISDLECDDAATYYCQSNGGSISNGWGSFGGGTEVVVK
notes: Rabbit monoclonal IgG
